Laboratory results as given in article PMC4081106 (Nucleic Acids Research, 2014).

Target: the molecule itself
Experiment: SEC + SEC-MALS

B1: TtcA protein from Escherichia coli, N-terminal hexahistidine-tagged (6his-TtcA) (enzyme, E. coli, UniProt P76055 1-311, looked up)
chain: MQENQQITKKEQYNLNKLQKRLRRNVGEAIADFNMIEEGDRIMVCLSGGKDSYTMLEILRNLQQSAPINFSLVAVNLDQKQPGFPEHVLPEYLEKLGVEYKIVEENTYGIVKEKIPEGKTTCSLCSRLRRGILYRTATELGATKIALGHHRDDILQTLFLNMFYGGKMKGMPPKLMSDDGKHIVIRPLAYCREKDIQRFADAKAFPIIPCNLCGSQPNLQRQVIADMLRDWDKRYPGRIETMFSAMQNVVPSHLCDTNLFDFKGITHGSEVVNGGDLAFDREEIPLQPACWQPEEDENQLDELRLNVVEVK
For B1, the “stoichiometry N” value was 2.
